In article PMC4526461 (The Biochemical journal, 2015):
Values joined by “and” are separate entries in the source; they are usually repeats but may differ in a detail not shown here. Equal values may be shown once.

Target: the molecule itself
Assay: non-reducing SDS/PAGE and Western blot

B1: recombinant mouse neutral sphingomyelinase-2 with C-terminal FLAG and 6xHis tags (pET-32a-nSMase-2-FLAG-6xHis), expressed in Rosetta2 (DE3) pLysS (enzyme, UniProt Q9JJY3 1-655, looked up)
chain: MVLYTTPFPNSCLSALHAVSWALIFPCYWLVDRLLASFIPTTYEKRQRADDPCCLQLFCTVLFTPVYLALLVAALPFAFLGFIFWSPLQSARRPYSYSRLEDKNPAGGAALLSEWKGTGAGKSFCFATANVCLLPDSLARLNNVFNTQARAKEIGQRIRNGAARPQIKIYIDSPTNTSISAASFSSLVSPQGGDGSRAVPGSIKRTASVEYKGDGGRHPSDEAANGPASGEQADGSLEDSCIVRIGGEEGGRPQEADDPAAGSQARNGAGGTPKGQTPNHNQRDGDSGSLGSPSASRESLVKARAGQDSGGSGEPGANSKLLYKTSVVKKAAARRRRHPDEAFDHEVSAFFPANLDFLCLQEVFDKRAAAKLKEQLHGYFEYILYDVGVYGCHGCCNFKCLNSGLFFASRYPVMDVAYHCYPNGCSFDALASKGALFLKVQVGSTPQDQRIVGYIACTHLHAPPEDSAVRCEQLDLLQDWLADFRKSTSSTSTANPEELVVFDVICGDLNFDNCSSDDKLEQQHSLFTRYKDPCRLGPGEEKPWAIGTLLDTNGLYDEDVCTPDNLQKVLESEEGRREYLAFPTSKSPGAGQKGRKDLLKGNGRRIDYMLHAEEGLCPDWKAEVEEFSFITQLSGLTDHLPVAMRLMVSAGEEEA
  stoichiometry N: 2 and 3

B2: nSMase-2 single-point mutant Cys561Ser (enzyme, mouse, UniProt Q9JJY3 1-655, looked up)
chain: MVLYTTPFPNSCLSALHAVSWALIFPCYWLVDRLLASFIPTTYEKRQRADDPCCLQLFCTVLFTPVYLALLVAALPFAFLGFIFWSPLQSARRPYSYSRLEDKNPAGGAALLSEWKGTGAGKSFCFATANVCLLPDSLARLNNVFNTQARAKEIGQRIRNGAARPQIKIYIDSPTNTSISAASFSSLVSPQGGDGSRAVPGSIKRTASVEYKGDGGRHPSDEAANGPASGEQADGSLEDSCIVRIGGEEGGRPQEADDPAAGSQARNGAGGTPKGQTPNHNQRDGDSGSLGSPSASRESLVKARAGQDSGGSGEPGANSKLLYKTSVVKKAAARRRRHPDEAFDHEVSAFFPANLDFLCLQEVFDKRAAAKLKEQLHGYFEYILYDVGVYGCHGCCNFKCLNSGLFFASRYPVMDVAYHCYPNGCSFDALASKGALFLKVQVGSTPQDQRIVGYIACTHLHAPPEDSAVRCEQLDLLQDWLADFRKSTSSTSTANPEELVVFDVICGDLNFDNCSSDDKLEQQHSLFTRYKDPCRLGPGEEKPWAIGTLLDTNGLYDEDVSTPDNLQKVLESEEGRREYLAFPTSKSPGAGQKGRKDLLKGNGRRIDYMLHAEEGLCPDWKAEVEEFSFITQLSGLTDHLPVAMRLMVSAGEEEA
  decrease in multimer to monomer ratio against wild-type: ~50%

B3: nSMase-2 single-point mutant Cys617Ser (enzyme, mouse, UniProt Q9JJY3 1-655, looked up)
chain: MVLYTTPFPNSCLSALHAVSWALIFPCYWLVDRLLASFIPTTYEKRQRADDPCCLQLFCTVLFTPVYLALLVAALPFAFLGFIFWSPLQSARRPYSYSRLEDKNPAGGAALLSEWKGTGAGKSFCFATANVCLLPDSLARLNNVFNTQARAKEIGQRIRNGAARPQIKIYIDSPTNTSISAASFSSLVSPQGGDGSRAVPGSIKRTASVEYKGDGGRHPSDEAANGPASGEQADGSLEDSCIVRIGGEEGGRPQEADDPAAGSQARNGAGGTPKGQTPNHNQRDGDSGSLGSPSASRESLVKARAGQDSGGSGEPGANSKLLYKTSVVKKAAARRRRHPDEAFDHEVSAFFPANLDFLCLQEVFDKRAAAKLKEQLHGYFEYILYDVGVYGCHGCCNFKCLNSGLFFASRYPVMDVAYHCYPNGCSFDALASKGALFLKVQVGSTPQDQRIVGYIACTHLHAPPEDSAVRCEQLDLLQDWLADFRKSTSSTSTANPEELVVFDVICGDLNFDNCSSDDKLEQQHSLFTRYKDPCRLGPGEEKPWAIGTLLDTNGLYDEDVCTPDNLQKVLESEEGRREYLAFPTSKSPGAGQKGRKDLLKGNGRRIDYMLHAEEGLSPDWKAEVEEFSFITQLSGLTDHLPVAMRLMVSAGEEEA
  decrease in multimer to monomer ratio against wild-type: ~50%
